The results in this text go back to the nanobody polyreactivity screen of Harvey et al. (2022).

This data set is described as follows: yeast display, Sf9 membrane polyspecificity reagent, FACS + sequencing; frameworks hold sequencing errors. Put shortly:
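A nanobody's polyreactivity label depends on the gate it was sorted from. Yeast display cells were stained with 10% biotinylated, detergent-solubilized Sf9 membrane reagent for 1 hour at 4 °C, enriched on streptavidin microbeads and sorted by FACS. The low and high (top ~1%) gates were set on anti-HA fluorescence for expression and streptavidin fluorescence for reagent binding.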
As to “QVQLVESGGGLVQAGGSLRLSCAASGSIFYPYAMGWYRQAPGKERELVAAINWGGTITYYADSVKGRFTISRDNAKNTVYLQMNSLKPEDTAVYYCAAKYKGYRYYYWGQGTQVTVSS”, the “polyreactivity (PSR sort gate)” value is “high polyreactivity”.
“QVQLVESGGGLVQAGGSLRLSCAASGSIFYPYAMGWYRQAPGKERELVAAIRFSGGRTYYADSVKGRFTISRDNAKNTVYLQMNSLKPEDTAVYYCAAEYYGIYSPYDYWGQGTQVTVSS”: the “polyreactivity (PSR sort gate)” value was “high polyreactivity”.
Under “QVQLVESGGGLVQAGGSLRLSCAASGSIFYPYAMGWYRQAPGKERELVAAITTGGGSTYADSVKGRFTISRDNAKNTVYLQMNSLKPEDTAVYYCNTDEYDIGSVYTLWEYDYWGQGTQVTVSS” stands “low polyreactivity”; under “QVQLVESGGGLVQAGGSLRLSCAASGSIFYPYAMGWYRQAPGKERELVAGISRSGASTYYADSVKGRFTISRDNAKNTVYLQMNSLKPEDTAVYYCAADDWTRNYWGQGTEVTVSS”, “low polyreactivity”; under “QVQLVESGGGLVQAGGSLRLSCAASGSIFYPYAMGWYRQAPGKERELVARISSAGGTYYADSVKGRFTISRDNAKNTVYLQMNSLKPEDTAVYYCAAQARYRYYYWGQGTQVTVSS”, “high polyreactivity”.
Under “QVQLVESGGGLVQAGGSLRLSCAASGSIFYQYAMGWYRQAPGKERELVAAISRSGGSTYYADSVKGRFTISRDNAKNTVYLQMISLKPEDTAVYYCAARAVRAAYDYWGLGTQVTVSS” stands “low polyreactivity”; under “QVQLVESGGGLVQAGGSLRLSCAASGSIFYQYAMGWYRQAPGKERELVARITWSSGSTYYADSVKGRFTISRDNAKNTVYLQMNSLKPEDTAVYYCNVVYTGTSYIYYYWGQGTQVTVSS”, “high polyreactivity”; under “QVQLVESGGGLVQAGGSLRLSCAASGSIFYRNAMGWYRQAPGKERELGAAISWSAARTYYADSVKGRFTISRDNAKNTVYLQMNSLKPEDTAVYYCAAYQTSRYKYEYWGQGTQVTVSS”, “high polyreactivity”.
“QVQLVESGGGLVQAGGSLRLSCAASGSIFYRNAMGWYRQAPGKERELVAAISARGGRTNYADSVKGRFTISRDNAKNTVYLQMNSLKPEDTAVYYCNTADSWYHRSQAYDYWGQGTQVTVSS”: the “polyreactivity (PSR sort gate)” value is reported as “high polyreactivity”.
As to “QVQLVESGGGLVQAGGSLRLSCAASGSIFYRNAMGWYRQAPGKERELVAAISRGGSTNYADSVKGRFTIERDNAKNTVYLQMNSLKPEDTAVYYCNALYHGDYDYWGQGTQVTVSS”, the “polyreactivity (PSR sort gate)” value is “high polyreactivity”.
As for “QVQLVESGGGLVQAGGSLRLSCAASGSIFYRNAMGWYRQAPGKERELVAAISSDGSTNYADSVKGRFTISRDNAMNTVDLQMNSLKPEDTAVYYCAAPWTQILDYWGQGTQVTVSS”, the “polyreactivity (PSR sort gate)” value is on record as “low polyreactivity”.
Turning to “QVQLVESGGGLVQAGGSLRLSCAASGSIFYRNAMGWYRQAPGKERELVAGITWRGGRTYYADSVKGRFTISRDNAKNTVYLQMNSLKPEDTAVYYCAATYYWYGHPSRRYDYWGQGTQVTVSS”, the “polyreactivity (PSR sort gate)” value was “high polyreactivity”.
Under “QVQLVESGGGLVQAGGSLRLSCAASGSIFYRNGMGWYRQAPGKERELVAAISGRGGSTNYADSVKGRFTISRDNAKNTVYLQMNSLKPEDTAVYYCNRYGVSNILVRGGYWGQGTQVTVSS” stands “high polyreactivity”.
Take “QVQLVESGGGLVQAGGSLRLSCAASGSIFYRNVMGWYRPAPGKERELVAVITSDGSTNYADSVKGRFTISRDNAKNTVYLQMNSLKPEVTAVYYCNAHYAFYGPGYPIYWIYEYWGQGTQVTVSS”: the “polyreactivity (PSR sort gate)” value is “low polyreactivity”.
Under “QVQLVESGGGLVQAGGSLRLSCAASGSIFYRNVMGWYRQAPGKERELVAAISQRGGSTYYADSVKGRFTISRDKAKNTVFLQMNSLKPEDTAVYYCNAASRGAGTSIWSWYDLWGQGTQVTVSS” stands “low polyreactivity”; under “QVQLVESGGGLVQAGGSLRLSCAASGSIFYRNVMGWYRQAPGKERELVATISRGGTTNYADSVKGRFTISRDNAKNTVYLQMNSLKPEDTAVYYCALKQSYYFGSYFYGHEYYYWGPGTQVTVSS”, “low polyreactivity”.
For “QVQLVESGGGLVQAGGSLRLSCAASGSIFYRYALGWYRQAPGKERELVAALSYSGGSTYYADSVKGRFTISRDNAKNTVYLQMNSLKPQETAVYYCANDSPPPISDYSRYYGYGYWGQGTQVTVSS”, the “polyreactivity (PSR sort gate)” value is reported as “low polyreactivity”.
Under “QVQLVESGGGLVQAGGSLRLSCAASGSIFYRYAMGWNRQAPGKEKELVAAISRSGGRTYYADSVKGRFTISRDNAMNTVYLQMNSLKPEDTAVYYCAAESTVGTDLGGYSWGQGSQVTVSS” stands “high polyreactivity”; under “QVQLVESGGGLVQAGGSLRLSCAASGSIFYRYAMGWYRQAPGKERELVAAINDSGGGTYYADSVKGRFTISRDNAKNTVYLQMNSLKPEDTAVYYCAAATHNKHTARDDYWGQGTQVTVSS”, “low polyreactivity”.
As for “QVQLVESGGGLVQAGGSLRLSCAASGSIFYRYAMGWYRQAPGKERELVAAISTAGSTNYADSVKGRFTISRDNAKNTVYLQINSPKPEDTAVYYCAAKSYRGRTQRSYGYWGQGTQVTVSS”, the “polyreactivity (PSR sort gate)” value is “low polyreactivity”.
On to “QVQLVESGGGLVQAGGSLRLSCAASGSIFYRYAMGWYRQAPGKERELVAGITRGGSTNYADSVKGRFTISRDNAKNTVYLQMNSLKPEDTAVYYCAARSYVYVHYYYWGQGTQVTVSS”, for which the “polyreactivity (PSR sort gate)” value is “high polyreactivity”.
Take “QVQLVESGGGLVQAGGSLRLSCAASGSIFYRYAMGWYRQAPGKVRELVAAISSGSSTHYADSVKGRFTISRDNAKNTVYLQMNSLKPEDTAVYYCAARYRAYTSTRRFDYWGQGTQVTVSS”: the “polyreactivity (PSR sort gate)” value is reported as “high polyreactivity”.
Under “QVQLVESGGGLVQAGGSLRLSCAASGSIFYSNAMGWYRQAPGKERELVAAIRRSGGSTYYADSVKGRFTISRDNAKNTVYLQMNSLKPEDTEVYYCAARYSGTYSFYLSVGSRGYNYWGQGTQVTVSS” stands “high polyreactivity”; under “QVQLVESGGGLVQAGGSLRLSCAASGSIFYSNTMGWYRQAPGKERELVAAISRGGSTYYADSVKGRFTISRDNAKNTVYLQMNSLKPEDTAVYYCAARYRWAPAYDYWGQGTQVTVSS”, “high polyreactivity”.
Under “QVQLVESGGGLVQAGGSLRLSCAASGSIFYSYAMGWYRQAHGKERELVAAITSGDITYYADSVKGRFTISRDNAKNTVYLQMNSLKPEDTAVYYCAAESYAWWDKQFLYRYDYWGQGTQVTVSS” stands “low polyreactivity”.
Under “QVQLVESGGGLVQAGGSLRLSCAASGSIFYSYAMGWYRQAPGKEREFVAAISQLGGSTYYADSVKGRFTISRDNAKNTVYLQMNSLKPEDTAVYSCNAVYRRAQFLYGYDYWGQGTQVTVSS” stands “high polyreactivity”; under “QVQLVESGGGLVQAGGSLRLSCAASGSIFYSYAMGWYRQAPGKERELVAAISWDASTYYADSVKGRFTISRDNAKNTVYLQMKSLKTEDTAVYYCNADIPYYFVFDAYDYWGQGTQVTVSS”, “low polyreactivity”; under “QVQLVESGGGLVQAGGSLRLSCAASGSIFYSYAMGWYRQAPGKERELVAAITSNAGGITRYADSVKGRFTISRDNAKNTVYLQMNSLKPEDTAVYYCAARGHYYTRYWGQGTQVTVSS”, “high polyreactivity”.
In the case of “QVQLVESGGGLVQAGGSLRLSCAASGSIFYSYAMGWYRQAPGKERELVADITITGSTYYADSVKGRFTISRDNAKNTVYLQMNSLKPEDTAVYYCTAVLAPGGYDYWGQGTQVTVSS”, the “polyreactivity (PSR sort gate)” value is given as “low polyreactivity”.
As for “QVQLVESGGGLVQAGGSLRLSCAASGSIFYTNAMGWYRPAPGKERELVAAIRWSGGRTYYADSVKGRFTISRDNAKNTVYLQMNSLKPEDTAVYYCNVVVRYPSAYDYWGQGTQVTVSS”, the “polyreactivity (PSR sort gate)” value is given as “high polyreactivity”.
Under “QVQLVESGGGLVQAGGSLRLSCAASGSIFYTNAMGWYRQAPGKEREFVAGITRRGTSTNYADSVKGRFTISRDKAKNTVYLQMNSQKPEDTAVYYCNARYYLYWGQGTQVTVSS” stands “low polyreactivity”; under “QVQLVESGGGLVQAGGSLRLSCAASGSIFYTNAMGWYRQAPGKERELVAVITASGGSTYYADSVKGRFTISRDNAKNTVYLQMNSLKPEDTSVYYCAADPVFNYDYWGQGTQVTVSS”, “low polyreactivity”.
Under “QVQLVESGGGLVQAGGSLRLSCAASGSIFYTNVMGWYRQAPGKERELVAAISSRGGSTYYADSVKGRFTISRDNAKNTVYLQMNSLKPEDTAVYYCAARFLHYYPTRGYTYDYWGQGTQVTVSS” stands “high polyreactivity”; under “QVQLVESGGGLVQAGGSLRLSCAASGSIFYTYAMGWYRQAPWKEREFVAASTGTGVRTYYADSVKGRFTISRDNAKNTVYLPMNSLKPEDTAVYYCAAVSAYRWIGLTNYSTYGYWGQGTQVTVSS”, “high polyreactivity”; under “QVQLVESGGGLVQAGGSLRLSCAASGSIFYVNAMGWYRQAPGKDRELVAAISVRGGRTYYADSVKGRFTISRDNAKNTVYLQLNSLKPEDTAVYYCATRISTVGRYDYWGQGTQVTVSS”, “high polyreactivity”.
Under “QVQLVESGGGLVQAGGSLRLSCAASGSIFYVYAMGWYRQAPGKERELVAAINTAGGSTFYADSVKGRFTISRDNAKNPVSLQMTSLKPEETAVYYCAAERYRYRSTDTMGYWGQGTQVTVSS” stands “low polyreactivity”; under “QVQLVESGGGLVQAGGSLRLSCAASGSIFYVYAMGWYRQAPGKERELVAAITNYADSVKGRFTISRDNAKNTVYLQMNSLKPEDTAVSYCAADWWRVEMDYWGQGTQVTVSS”, “low polyreactivity”.
In the case of “QVQLVESGGGLVQAGGSLRLSCAASGSIFYVYAMGWYRQAPGKERELVADITTRDGDTYYADSVKGRFTISRDNAKNTVYLQMNSLKPVDTAVYYCAADLNAYPQRAYDYWGQGTQLTVSS”, the “polyreactivity (PSR sort gate)” value was “low polyreactivity”.
Under “QVQLVESGGGLVQAGGSLRLSCAASGSIFYVYVMGWYRPAPGKERELVAGITSGGSTYYADSVKGRFTISRDNAKNTVYFQMNSLKPEDTAVYFCAADLYYWGDYDYWGQGSQVTVSS” stands “low polyreactivity”; under “QVQLVESGGGLVQAGGSLRLSCAASGSIFYVYVMGWYRQAPGKERELVAAIDTGGGDTYYADSVKGRFTISRDNAKNTVYLQMNSLKPEDTAVYYCSTSGPQYYSRNFDYWGQGTQVTVSS”, “low polyreactivity”; under “QVQLVESGGGLVQAGGSLRLSCAASGSIFYWNVMGWYRQAPGKERELVAGISTSVGNTYYADSVKGRFTISRDNAKNTVYLQMNSLKPEDTAVYYCNVAGKQKPYYVTTRLDYWGQGTQVTVSS”, “high polyreactivity”.
